According to PMC8924211 (Nature Communications, 2022):
Where a chain is given by its changes, count along the chain named.

How the values were obtained:
Assay in all cases: AlphaScreen or HTRF; saturation binding: HEK293 cells transfected with SNAP-tagged receptor (WT or mutant) and labelled with SNAP-Lumi4-Tb, incubated with increasing concentrations of galanin-A2 in the presence or absence of 100 uM unlabeled galanin, 1 h at room temperature; HTRF ratio 665 nm/620 nm
Details in all cases: one partner purified
SNAP-GAL2R T267^7.28A = biological target: T1, SNAP-GAL2R T267^7.28A (human, UniProt O43603 1-387, T267^7.28A, Lumi4-Tb on the SNAP tag)
T1 construct: also called T267A; source: HEK293, transfected, on cells; not shown: SNAP tag, N-terminal, kept
T1 sequence (looked up): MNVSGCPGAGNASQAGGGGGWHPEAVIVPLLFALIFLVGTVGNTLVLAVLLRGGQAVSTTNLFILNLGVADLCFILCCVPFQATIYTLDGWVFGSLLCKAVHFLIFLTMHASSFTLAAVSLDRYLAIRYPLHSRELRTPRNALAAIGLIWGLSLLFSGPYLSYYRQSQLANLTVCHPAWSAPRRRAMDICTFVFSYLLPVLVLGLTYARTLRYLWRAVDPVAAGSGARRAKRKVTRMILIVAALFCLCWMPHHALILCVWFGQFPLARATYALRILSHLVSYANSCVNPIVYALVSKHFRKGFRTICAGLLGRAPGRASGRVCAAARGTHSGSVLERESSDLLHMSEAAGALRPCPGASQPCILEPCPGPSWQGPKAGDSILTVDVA

SNAP-GAL2R R184^5.35A = biological target: T2, SNAP-GAL2R R184^5.35A (human, UniProt O43603 1-387, R184^5.35A, Lumi4-Tb on the SNAP tag)
T2 construct: also called R184A; source: HEK293, transfected, on cells; not shown: SNAP tag, N-terminal, kept
T2 sequence (looked up): T1 sequence (looked up) with R184A, A267T

SNAP-GAL2R W249^6.48A = biological target: T3, SNAP-GAL2R W249^6.48A (human, UniProt O43603 1-387, W249^6.48A, Lumi4-Tb on the SNAP tag)
T3 construct: also called W249A; source: HEK293, transfected, on cells; not shown: SNAP tag, N-terminal, kept
T3 sequence (looked up): T1 sequence (looked up) with W249A, A267T

[1] = biological target: T4, N-terminal-SNAP-tagged GAL1R, wild type (human, UniProt P47211 1-349, Lumi4-Tb on the SNAP tag)
T4 construct: also called SNAP-GAL1R; GAL1R WT; source: HEK293, transfected, on cells; not shown: SNAP tag, N-terminal, kept
T4 sequence (looked up): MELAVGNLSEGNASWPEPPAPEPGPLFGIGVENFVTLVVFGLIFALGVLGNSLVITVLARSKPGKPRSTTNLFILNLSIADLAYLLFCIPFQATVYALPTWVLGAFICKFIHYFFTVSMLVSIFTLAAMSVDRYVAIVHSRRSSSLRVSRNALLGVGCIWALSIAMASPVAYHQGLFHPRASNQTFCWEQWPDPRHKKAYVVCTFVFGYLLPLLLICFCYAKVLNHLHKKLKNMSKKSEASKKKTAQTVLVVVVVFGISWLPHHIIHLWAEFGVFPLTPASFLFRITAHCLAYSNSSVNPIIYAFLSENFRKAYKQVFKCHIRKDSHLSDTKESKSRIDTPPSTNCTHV

B1: galanin-A2 (full-length galanin labeled with the dye A2 on an additional cysteine at the C-terminal end) (peptide)
peptide: GWTLNSAGYLLGPHAVGNHRSFSDKNGLTSC
modifications: dye A2 on the additional C-terminal cysteine
notes: numbers count on: the mature protein; additional cysteine at the C-terminal end of the peptide, carries the dye A2; source: synthetic peptide (synthesized by Vazyme, China)
- Kd (SNAP-GAL2R T267^7.28A): 229 nM
- Kd (SNAP-GAL2R R184^5.35A): 286 nM
- Kd (SNAP-GAL2R W249^6.48A): 23.3 nM
- Kd [1]: 22.2 nM
